Test results taken from patent US20210275644A1 (OCTAPHARMA, published 2021).
Where no end group is shown, it is not given here.

B1: FVIII (Nuwiq, Octapharma) (other, UniProt P00451 20-2351, looked up)
chain: ATRRYYLGAVELSWDYMQSDLGELPVDARFPPRVPKSFPFNTSVVYKKTLFVEFTDHLFNIAKPRPPWMGLLGPTIQAEVYDTVVITLKNMASHPVSLHAVGVSYWKASEGAEYDDQTSQREKEDDKVFPGGSHTYVWQVLKENGPMASDPLCLTYSYLSHVDLVKDLNSGLIGALLVCREGSLAKEKTQTLHKFILLFAVFDEGKSWHSETKNSLMQDRDAASARAWPKMHTVNGYVNRSLPGLIGCHRKSVYWHVIGMGTTPEVHSIFLEGHTFLVRNHRQASLEISPITFLTAQTLLMDLGQFLLFCHISSHQHDGMEAYVKVDSCPEEPQLRMKNNEEAEDYDDDLTDSEMDVVRFDDDNSPSFIQIRSVAKKHPKTWVHYIAAEEEDWDYAPLVLAPDDRSYKSQYLNNGPQRIGRKYKKVRFMAYTDETFKTREAIQHESGILGPLLYGEVGDTLLIIFKNQASRPYNIYPHGITDVRPLYSRRLPKGVKHLKDFPILPGEIFKYKWTVTVEDGPTKSDPRCLTRYYSSFVNMERDLASGLIGPLLICYKESVDQRGNQIMSDKRNVILFSVFDENRSWYLTENIQRFLPNPAGVQLEDPEFQASNIMHSINGYVFDSLQLSVCLHEVAYWYILSIGAQTDFLSVFFSGYTFKHKMVYEDTLTLFPFSGETVFMSMENPGLWILGCHNSDFRNRGMTALLKVSSCDKNTGDYYEDSYEDISAYLLSKNNAIEPRSFSQNSRHQAYRYRRGEITRTTLQSDQEEIDYDDTISVEMKKEDFDIYDEDENQSPRSFQKKTRHYFIAAVERLWDYGMSSSPHVLRNRAQSGSVPQFKKVVFQEFTDGSFTQPLYRGELNEHLGLLGPYIRAEVEDNIMVTFRNQASRPYSFYSSLISYEEDQRQGAEPRKNFVKPNETKTYFWKVQHHMAPTKDEFDCKAWAYFSDVDLEKDVHSGLIGPLLVCHTNTLNPAHGRQVTVQEFALFFTIFDETKSWYFTENMERNCRAPCNIQMEDPTFKENYRFHAINGYIMDTLPGLVMAQDQRIRWYLLSMGSNENIHSIHFSGHVFTVRKKEEYKMALYNLYPGVFETVEMLPSKAGIWRVECLIGEHLHAGMSTLFLVYSNKCQTPLGMASGHIRDFQITASGQYGQWAPKLARLHYSGSINAWSTKEPFSWIKVDLLAPMIIHGIKTQGARQKFSSLYISQFIIMYSLDGKKWQTYRGNSTGTLMVFFGNVDSSGIKHNIFNPPIIARYIRLHPTHYSIRSTLRMELMGCDLNSCSMPLGMESKAISDAQITASSYFTNMFATWSPSKARLHLQGRSNAWRPQVNNPKEWLQVDFQKTMKVTGVTTQGVKSLLTSMYVKEFLISSSQDGHQWTLFFQNGKVKVFQGNQDSFTPVVNSLDPPLLTRYLRIHPQSWVHQIALRMEVLGCEAQDLY
notes: Commercial product; also called recombinant FVIII; factor VIII
B2: Recombinant SIG-5 Fc-fusion protein (R&D Systems) (Fc fusion)
chain: EKPVYELQVQKSVTVQEGLCVLVPCSFSYPWRSWYSSPPLYVYWFRDGEIPYYAEVVATNNPDRRVKPETQGRFRLLGDVQKKNCSLSIGDARMEDTGSYFFRVERGRDVKYSYQQNKLNLEVTALIEKPDIHFLEPLESGRPTRLSCSLPGSCEAGPPLTFSWTGNALSPLDPETTRSSELTLTPRPEDHGTNLTCQMKRQGAQVTTERTVQLNVSYAPQTITIFRNGIALEILQNTSYLPVLEGQALRLLCDAPSNPPAHLSWFQGSPALNATPISNTGILELRRVRSAEEGGFTCRAQHPLGFLQIFLNLSVYSLPQLLGPSCSWEAEGLHCRCSFRARPAPSLCWRLEEKPLEGNSSQGSFKVNSSSAGPWANSSLILHGGLSSDLKVSCKAWNIYGSQSGSVLLLQGRSNLGT
notes: Bought from R&D Systems; Held on the plate by protein A; also called SIGLEC 5; not shown: Fc part of the bought fusion protein
B3: Recombinant SIG-9 Fc-fusion protein (R&D Systems) (Fc fusion)
chain: QTSKLLTMQSSVTVQEGLCVHVPCSFSYPSHGWIYPGPVVHGYWFREGANTDQDAPVATNNPARAVWEETRDRFHLLGDPHTKNCTLSIRDARRSDAGRYFFRMEKGSIKWNYKHHRLSVNVTALTHRPNILIPGTLESGCPQNLTCSVPWACEQGTPPMISWIGTSVSPLDPSTTRSSVLTLIPQPQDHGTSLTCQVTFPGASVTTNKTVHLNVSYPPQNLTMTVFQGDGTVSTVLGNGSSLSLPEGQSLRLVCAVDAVDSNPPARLSLSWRGLTLCPSQPSNPGVLELPWVHLRDAAEFTCRAQNPLGSQQVYLNVSLQSKATSGVTQG
notes: Bought from R&D Systems; Held on the plate by protein A; also called SIGLEC 9; not shown: Fc part of the bought fusion protein
B4: Cluster 2 fragment (tryptic glycopeptide of plasma derived vWF, AA 674 to 728/729) (peptide)
peptide: AFVLSSVDELEQQRDEIVSYLC(Maleimide‑PEG2‑Biotin)DLAPEAPPPTLPPDMAQVTVGPGLLGVSTLGPKR
modifications: also: natural O-glycans (sialylated core 2), sites not given here
notes: also called Cluster II; O-glycosylation Cluster II
B5: Recombinant SIG-7 Fc-fusion protein (R&D Systems) (Fc fusion)
chain: QKSNRKDYSLTMQSSVTVQEGMCVHVRCSFSYPVDSQTDSDPVHGYWFRAGNDISWKAPVATNNPAWAVQEETRDRFHLLGDPQTKNCTLSIRDARMSDAGRYFFRMEKGNIKWNYKYDQLSVNVTALTHRPNILIPGTLESGCFQNLTCSVPWACEQGTPPMISWMGTSVSPLHPSTTRSSVLTLIPQPQHHGTSLTCQVTLPGAGVTTNRTIQLNVSYPPQNLTVTVFQGEGTASTALGNSSSLSVLEGQSLRLVCAVDSNPPARLSWTWRSLTLYPSQPSNPLVLELQVHLGDEGEFTCRAQNSLGSQHVSLNLSLQQEYTGKMRPVSGVLLGAVG
notes: Bought from R&D Systems; Held on the plate by protein A; also called SIGLEC 7; not shown: Fc part of the bought fusion protein

Key:
[1] = molecular target: T1, full length plasmatic VWF (Wilate, Octapharma) (human, UniProt P04275 764-2813); experiment: SPR (Biacore 3000): VWF immobilised on a CM5 chip by amine coupling, FVIII injected 0.2-45 nM; mean of five measurements
T1 construct: multimer
T1 sequence (P04275 764-2813 limits assumed): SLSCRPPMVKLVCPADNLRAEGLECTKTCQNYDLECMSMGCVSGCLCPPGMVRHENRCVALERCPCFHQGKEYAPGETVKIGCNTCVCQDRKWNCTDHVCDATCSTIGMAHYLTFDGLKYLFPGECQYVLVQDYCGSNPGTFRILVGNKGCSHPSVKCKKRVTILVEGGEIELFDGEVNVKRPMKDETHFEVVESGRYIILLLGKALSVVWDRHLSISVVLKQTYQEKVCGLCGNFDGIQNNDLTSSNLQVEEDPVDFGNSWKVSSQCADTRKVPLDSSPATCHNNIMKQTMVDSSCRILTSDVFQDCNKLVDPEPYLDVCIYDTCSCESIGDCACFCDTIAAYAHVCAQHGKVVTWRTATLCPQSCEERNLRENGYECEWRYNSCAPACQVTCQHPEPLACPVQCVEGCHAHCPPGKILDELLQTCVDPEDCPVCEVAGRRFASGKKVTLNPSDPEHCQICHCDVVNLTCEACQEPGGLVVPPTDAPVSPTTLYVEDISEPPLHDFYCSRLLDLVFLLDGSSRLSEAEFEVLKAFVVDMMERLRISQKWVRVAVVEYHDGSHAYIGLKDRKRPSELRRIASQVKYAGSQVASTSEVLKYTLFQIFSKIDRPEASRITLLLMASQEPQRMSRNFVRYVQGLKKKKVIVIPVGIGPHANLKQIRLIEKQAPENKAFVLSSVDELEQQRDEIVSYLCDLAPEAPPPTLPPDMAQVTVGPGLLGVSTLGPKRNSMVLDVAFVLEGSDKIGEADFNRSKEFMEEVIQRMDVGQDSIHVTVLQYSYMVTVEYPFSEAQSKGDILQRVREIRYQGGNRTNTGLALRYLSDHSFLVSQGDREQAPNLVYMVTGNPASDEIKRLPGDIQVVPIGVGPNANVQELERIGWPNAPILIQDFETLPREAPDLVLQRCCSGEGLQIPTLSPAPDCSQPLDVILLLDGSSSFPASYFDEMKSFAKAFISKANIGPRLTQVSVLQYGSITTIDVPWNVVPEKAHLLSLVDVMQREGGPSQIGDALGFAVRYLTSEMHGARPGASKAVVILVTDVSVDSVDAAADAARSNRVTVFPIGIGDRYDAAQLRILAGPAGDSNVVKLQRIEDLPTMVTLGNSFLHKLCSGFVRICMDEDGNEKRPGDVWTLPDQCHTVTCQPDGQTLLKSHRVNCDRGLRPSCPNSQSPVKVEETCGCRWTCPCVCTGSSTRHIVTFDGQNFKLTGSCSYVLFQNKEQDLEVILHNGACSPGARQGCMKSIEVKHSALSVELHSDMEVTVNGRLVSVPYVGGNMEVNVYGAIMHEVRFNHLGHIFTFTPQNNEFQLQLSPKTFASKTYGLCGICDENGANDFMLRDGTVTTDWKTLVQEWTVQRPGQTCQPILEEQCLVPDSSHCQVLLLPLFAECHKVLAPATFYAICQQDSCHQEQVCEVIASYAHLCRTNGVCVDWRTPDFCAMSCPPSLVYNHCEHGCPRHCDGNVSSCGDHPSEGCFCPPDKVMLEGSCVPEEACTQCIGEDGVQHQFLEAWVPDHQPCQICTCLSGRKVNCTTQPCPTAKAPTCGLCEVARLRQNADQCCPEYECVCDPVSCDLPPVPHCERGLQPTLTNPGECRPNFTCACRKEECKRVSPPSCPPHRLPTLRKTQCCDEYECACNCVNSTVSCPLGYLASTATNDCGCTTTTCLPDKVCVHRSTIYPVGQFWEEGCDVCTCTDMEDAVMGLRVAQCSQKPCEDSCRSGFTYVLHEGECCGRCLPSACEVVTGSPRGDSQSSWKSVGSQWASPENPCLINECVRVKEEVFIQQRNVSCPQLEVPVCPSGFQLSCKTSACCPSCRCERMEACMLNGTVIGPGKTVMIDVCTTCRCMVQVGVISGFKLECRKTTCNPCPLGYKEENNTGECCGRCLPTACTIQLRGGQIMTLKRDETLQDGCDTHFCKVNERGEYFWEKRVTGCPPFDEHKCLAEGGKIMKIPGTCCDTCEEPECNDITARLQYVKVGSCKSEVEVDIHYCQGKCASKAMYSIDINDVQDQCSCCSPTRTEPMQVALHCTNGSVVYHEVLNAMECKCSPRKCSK

[2] = molecular target: T2, Seq11 (recombinant vWF fragment AA 1-505 of SEQ ID NO: 1 with C-terminal Strep-Tag, from HEK 293) (human, UniProt P04275 764-1268, four O-glycosylation sites 485, 492, 493, 500 occupied (core 1, core 2 and/or extended core 1, sialylated)); experiment: SIGLEC ELISA with Scatchard analysis (GraphPad Prism); no unit beside the number, concentration axis in µM [panel SIGLEC 5]
T2 construct: Expressed in HEK293 / MEXi-293 cells, purified on Strep-Tactin; not shown: C-terminal Twin-Strep-tag of the pDSG vector (IBA)
T2 sequence (P04275 764-1268): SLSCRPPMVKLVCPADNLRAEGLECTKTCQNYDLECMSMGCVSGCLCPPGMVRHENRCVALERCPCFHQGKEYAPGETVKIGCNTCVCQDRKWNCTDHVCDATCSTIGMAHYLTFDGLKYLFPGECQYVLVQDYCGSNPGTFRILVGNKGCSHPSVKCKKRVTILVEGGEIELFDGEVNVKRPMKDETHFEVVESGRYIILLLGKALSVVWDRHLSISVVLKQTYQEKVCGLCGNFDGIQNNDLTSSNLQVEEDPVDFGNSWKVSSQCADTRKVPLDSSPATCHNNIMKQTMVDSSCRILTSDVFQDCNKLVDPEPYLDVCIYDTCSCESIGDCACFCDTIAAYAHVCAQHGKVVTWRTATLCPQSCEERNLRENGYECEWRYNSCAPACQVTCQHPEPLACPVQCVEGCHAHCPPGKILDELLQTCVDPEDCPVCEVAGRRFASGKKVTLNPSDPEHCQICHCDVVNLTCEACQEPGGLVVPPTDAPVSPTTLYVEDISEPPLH

[3] = molecular target: T3, vWF C-terminal fragment (V8 protease digest of plasma derived vWF) (human, UniProt P04275 2129-2813, biotinylated with EZ-Link Sulfo-NHS-Biotin); experiment: ELISA: SIGLEC-Fc captured on a protein A plate (500 ng/well), biotinylated vWF fragment at 1 µg/mL, streptavidin-HRP, A492, single concentration
T3 construct: the real molecule is only its C-terminal part; also called C-terminal vWF fragment
T3 sequence (P04275 2129-2813 limits assumed): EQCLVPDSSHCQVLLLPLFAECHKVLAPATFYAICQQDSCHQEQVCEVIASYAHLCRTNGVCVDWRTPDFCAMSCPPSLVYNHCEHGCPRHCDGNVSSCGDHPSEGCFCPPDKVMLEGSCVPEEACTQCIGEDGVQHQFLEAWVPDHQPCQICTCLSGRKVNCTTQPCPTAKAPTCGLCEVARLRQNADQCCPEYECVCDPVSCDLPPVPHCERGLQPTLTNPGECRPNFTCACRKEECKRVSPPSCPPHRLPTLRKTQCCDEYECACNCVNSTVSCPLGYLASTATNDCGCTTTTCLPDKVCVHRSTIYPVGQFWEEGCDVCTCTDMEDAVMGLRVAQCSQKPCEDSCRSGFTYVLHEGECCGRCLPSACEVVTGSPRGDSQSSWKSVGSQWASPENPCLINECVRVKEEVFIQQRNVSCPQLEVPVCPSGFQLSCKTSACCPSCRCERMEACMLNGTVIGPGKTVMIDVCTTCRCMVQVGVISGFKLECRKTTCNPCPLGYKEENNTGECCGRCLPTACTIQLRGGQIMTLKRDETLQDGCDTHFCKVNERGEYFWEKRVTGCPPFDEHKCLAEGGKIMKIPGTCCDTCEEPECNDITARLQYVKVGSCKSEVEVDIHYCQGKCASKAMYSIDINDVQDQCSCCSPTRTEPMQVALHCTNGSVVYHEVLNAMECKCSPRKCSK

[4] = molecular target: T2, Seq11 (recombinant vWF fragment AA …); experiment: SIGLEC ELISA, Scatchard analysis of the binding curve (apparent KD)
[5] = molecular target: T2, Seq11 (recombinant vWF fragment AA …); experiment: SIGLEC ELISA with Scatchard analysis (GraphPad Prism); no unit beside the number, concentration axis in µM [panel SIGLEC 9]
[6] = molecular target: T4, Recombinant SIG-10 Fc-fusion protein (R&D Systems) (human, UniProt Q96LC7 17-546, limits assumed); experiment: ELISA: SIGLEC-Fc captured on a protein A plate (500 ng/well), biotinylated cluster fragment at 4 µg/mL, streptavidin-HRP, A492, single concentration
T4 construct: Bought from R&D Systems; Held on the plate by protein A; not shown: Fc part of the bought fusion protein
T4 sequence (looked up): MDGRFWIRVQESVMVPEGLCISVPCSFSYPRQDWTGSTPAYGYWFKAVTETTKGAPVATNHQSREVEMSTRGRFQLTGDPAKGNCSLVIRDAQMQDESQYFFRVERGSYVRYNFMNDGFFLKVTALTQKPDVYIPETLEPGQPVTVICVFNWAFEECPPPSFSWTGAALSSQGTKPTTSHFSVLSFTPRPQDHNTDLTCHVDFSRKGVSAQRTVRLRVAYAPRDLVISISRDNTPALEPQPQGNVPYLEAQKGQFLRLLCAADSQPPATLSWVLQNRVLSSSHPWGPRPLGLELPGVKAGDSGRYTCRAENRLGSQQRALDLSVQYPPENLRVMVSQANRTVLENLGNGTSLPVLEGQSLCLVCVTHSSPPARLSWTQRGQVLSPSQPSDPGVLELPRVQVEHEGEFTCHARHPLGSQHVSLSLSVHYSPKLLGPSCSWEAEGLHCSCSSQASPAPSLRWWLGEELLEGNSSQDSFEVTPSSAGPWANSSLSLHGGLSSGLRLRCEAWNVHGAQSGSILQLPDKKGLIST

[7] = molecular target: T2, Seq11 (recombinant vWF fragment AA …); experiment: SIGLEC ELISA with Scatchard analysis (GraphPad Prism); no unit beside the number, concentration axis in µM [panel SIGLEC 7]

binding result [3] | Kd [4] [nM] | further results | Binder
– | – | Kd [1]: 0.3 nM | B1
no binding (tested: 1 µg/mL) | 494 | Kd [2]: 494 nM | B2
no binding (tested: 1 µg/mL) | 591 | Kd [5]: 591 nM | B3
– | – | binding result [6]: no binding (tested: 4 µg/mL) | B4
no binding (tested: 1 µg/mL) | 371 | Kd [7]: 371 nM | B5
